Test results taken from the supplement of paper PMC10567573.

B1: SNX8 (parent)
chain: VVLKLFLSFSGSDVQNKLKESAQC
B2: TOR1AIP2 (parent)
chain: HHVADAYTSSQKVSPIQIDGAGRT

Variants of: B1
Assay: protein stability index of a GFP-peptide fusion (GPS, HEK-293T) (PSI 1-6); higher = more stable
Details: c terminus: a fixed tail appended
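Further: lentivirally expressed fusions sorted by FACS into six bins by GFP to DsRed ratio, PSI derived from sequencing read proportions per bin multiplied by bin number.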

Protein stability index, by site and new letter:
L7: E 2.56; N 1.09; K 1.84; F 2.35; H 3.04; Q 1.63; V 3.66; G 1.43; P 2.34; D 1.73
V1: E 2.47; S 3.54; F 2.81; Y 2.69; Q 4.24; P 1.85; T 2.48; W 1.04; H 1.6; R 2.71; N 1.36; I 3.61; A 1.96
D13: F 2.07; H 3.62; T 2.28; Q 3.33; C 2.1
K4: S 2.38; F 2.27; P 3.99; E 4.58; Q 2.43; H 2.6; N 2.76
L3: A 2.34; Q 2.61; F 3.59; P 2.87; G 1.78; T 1.2; E 1.57; Y 1.94; N 2.21; V 3.77; C 2.4; H 3.17; D 2.44; K 2.5; S 1.66
V14: A 2.43; K 1.82; E 1.91; D 2.3; H 1.59
S12: W 3.39; Q 3.23; H 1.9; T 3.29; P 3.58; M 1.72; Y 4.07; K 3.15; I 2.62; D 3.29; N 2.13; L 1.37; A 2.2
L5: E 1.79; C 2.91; P 1.83; R 1.92; F 3.22; G 1.55; H 2.57; I 2.62; Y 1.69; K 2.59; S 1.1; A 2.93; D 2.41; Q 2.61
F6: M 2.48; D 1.17; K 3.48; E 1.31; N 3.24; S 3.13; P 2.29; I 2.18
S8: P 5.05; M 4.24; L 2.45; A 1.77; W 2.64; R 1.92; G 1.91
F9: E 1.11; A 3; Q 4.89; K 1.72; V 3.52; W 2.48; R 2.42; N 1.66; H 3.85; T 2.41; Y 3.17; P 2.64; I 3.38
S10: R 2.08; M 1.38; K 2.22; P 1.78; T 4.41; A 1.79; D 2.68; N 2.75; L 2.45; W 3.92; Q 2.18; V 3.99; Y 2.26
G11: H 2.62; V 3.28; C 1.74; A 2.33; L 3.09; F 3.55; S 2.41; Q 1.77; Y 2.42; I 2.14; R 3.97; D 2.11; E 3.17
V2: N 1.11; W 3.59; Y 2.24; C 3.14; K 3.26; A 3.41; E 1.39; M 2.57; S 2.79; D 1.4; L 2.09; P 2.19

Variants of: B2
Assay: as above
Details: c terminus: a fixed tail appended

Protein stability index of substitutions, site by site:
A21: W 2.67; H 3.7; V 3.34; Y 3.22; D 4.16; I 3.34
Y7: V 4.62; C 4.19; K 4.65
V3: M 2.92; P 4.2; G 2.73; D 2.96; K 3.19; E 3.12; F 2.34; S 2.46
T8: I 2.82; G 3.87; K 3.49; V 3.3; C 2.78; Y 3.45; D 4.66; W 2.86; M 3.89
I16: E 4.51; K 4.04; H 3.45; F 3.49; Y 3.69; R 3.94; P 4.09; G 3.78
A6: G 4.39; E 4.77; N 4.26; W 2.19; P 4.3; H 3.85; K 4.03; R 3.95; L 3.2; V 3.48
S9: V 1.62; N 3.54; W 2.65; R 3.75; M 3.52
D19: N 3.34; S 3.2; H 2.87; C 3.1; R 2.93; W 1.94; Y 2.47
S14: Q 3.35; P 3.25; W 2.77; C 3.22; A 3.9; L 3.42; N 4.01
A4: W 3.57; F 3.42; G 4.25; T 2.27; H 3.43; M 4.01; N 4.17; C 2.84; E 4.43
I18: N 3.96; D 4.28; S 3.72; T 3.87; E 3.73; C 3.61; P 4.15; A 4.03; W 3.26; Q 3.75
P15: G 4.04; D 3.81; K 3.33; I 2.77; T 3.28; V 3.14; W 2.63; L 3.45
T24: S 3.58; R 3.68; G 3.85; I 3; A 3.36; C 3.43; L 3.09; F 2.81
D5: C 2.46; N 3.33; K 3.19; F 2.24; E 2.73; Y 2.35; I 2.5; R 3.6; A 2.63; P 3.54; Q 2.93; S 2.72; L 2.44
H1: M 3.93; A 4.54; C 3.67; P 3.85; D 4.91; I 3.14; R 4.33; W 3.68; S 4.3
Q17: H 3.17; I 3.05; V 3.49; R 3.72; L 3.57; K 3.63; S 3.69
Q11: C 3.06; F 2.65; W 2.21; L 3.27
G20: N 3.58; C 3.19; P 3.28; R 3.38; D 4.01; M 3.44; F 3.06; E 3.36; A 3.53; I 3.04
G22: F 2.7; I 3.26; Q 3.5; P 3.61; L 2.92; Y 2.82
V13: P 3.82; M 3.83; R 3.59; I 2.83; T 3.8; E 3.96
K12: C 3.06; E 3.84; P 4.16; W 2.72; Y 3.02; R 3.34; A 3.85; N 3.67
R23: T 3.47; S 3.83; G 3.68; P 3.01; A 3.86; Y 2.94; Q 3.71; H 3.76
H2: Q 2.51; R 3.67; K 4.32; C 3.5; T 3.81; Y 3.4; A 4.01
S10: E 3.98; L 3.07; A 3; T 3.28; N 3.21; I 2.72; C 2.96; V 2.9; H 3.17; F 2.95
